Patent US20240035010, “COMPOSITIONS COMPRISING A VARIANT POLYPEPTIDE AND USES THEREOF” (Arbor Biotechnologies, Inc., published 2024)

T1: variant nuclease SEQ ID NO: 53 (P14R, D32R, I61R, E311R, T338G, E736G)
T1 chain: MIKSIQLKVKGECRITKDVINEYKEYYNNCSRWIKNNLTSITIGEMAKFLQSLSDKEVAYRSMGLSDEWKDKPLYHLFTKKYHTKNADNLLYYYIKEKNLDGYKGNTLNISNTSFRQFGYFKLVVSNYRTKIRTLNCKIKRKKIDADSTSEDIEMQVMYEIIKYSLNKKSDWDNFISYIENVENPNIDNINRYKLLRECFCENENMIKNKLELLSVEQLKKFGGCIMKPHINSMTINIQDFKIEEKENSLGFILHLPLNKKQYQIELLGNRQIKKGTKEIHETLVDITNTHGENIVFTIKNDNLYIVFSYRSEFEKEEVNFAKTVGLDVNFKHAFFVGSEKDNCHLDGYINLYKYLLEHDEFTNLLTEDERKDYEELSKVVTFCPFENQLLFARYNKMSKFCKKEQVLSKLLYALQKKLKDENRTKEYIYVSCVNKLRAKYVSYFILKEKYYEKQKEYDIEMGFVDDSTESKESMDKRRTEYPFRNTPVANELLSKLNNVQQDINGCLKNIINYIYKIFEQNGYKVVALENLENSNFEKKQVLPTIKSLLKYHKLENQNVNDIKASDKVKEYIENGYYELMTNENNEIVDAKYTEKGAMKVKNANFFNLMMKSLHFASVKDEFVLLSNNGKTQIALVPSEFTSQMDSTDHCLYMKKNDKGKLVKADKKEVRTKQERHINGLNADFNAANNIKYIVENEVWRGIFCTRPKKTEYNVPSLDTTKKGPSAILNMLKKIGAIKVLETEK

T2: variant nuclease T338G combination (P14R, D32R, I61R, E311R, T338G)
T2 chain: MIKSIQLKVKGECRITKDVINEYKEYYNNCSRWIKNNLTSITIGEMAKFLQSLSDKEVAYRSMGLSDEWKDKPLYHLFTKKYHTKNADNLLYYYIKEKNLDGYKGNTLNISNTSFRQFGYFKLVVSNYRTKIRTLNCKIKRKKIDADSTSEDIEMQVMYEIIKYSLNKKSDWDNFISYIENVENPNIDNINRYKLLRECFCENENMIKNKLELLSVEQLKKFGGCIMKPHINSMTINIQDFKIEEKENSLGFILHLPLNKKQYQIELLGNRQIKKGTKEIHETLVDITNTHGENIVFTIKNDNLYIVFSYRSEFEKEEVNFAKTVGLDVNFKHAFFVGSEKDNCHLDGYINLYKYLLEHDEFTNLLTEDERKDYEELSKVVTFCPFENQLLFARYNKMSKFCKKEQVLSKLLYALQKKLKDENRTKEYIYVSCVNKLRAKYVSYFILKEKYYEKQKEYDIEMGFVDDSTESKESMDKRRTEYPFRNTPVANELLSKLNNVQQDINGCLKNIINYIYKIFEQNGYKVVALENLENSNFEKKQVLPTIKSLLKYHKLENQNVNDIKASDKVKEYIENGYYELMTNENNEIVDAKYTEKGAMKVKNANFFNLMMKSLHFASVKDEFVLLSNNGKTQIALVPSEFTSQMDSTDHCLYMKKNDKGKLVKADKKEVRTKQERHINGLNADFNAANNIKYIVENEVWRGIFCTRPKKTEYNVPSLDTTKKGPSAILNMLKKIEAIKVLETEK

T3: variant nuclease D55G/E736G combination (P14R, D32R, I61R, E311R, D55G, E736G)
T3 chain: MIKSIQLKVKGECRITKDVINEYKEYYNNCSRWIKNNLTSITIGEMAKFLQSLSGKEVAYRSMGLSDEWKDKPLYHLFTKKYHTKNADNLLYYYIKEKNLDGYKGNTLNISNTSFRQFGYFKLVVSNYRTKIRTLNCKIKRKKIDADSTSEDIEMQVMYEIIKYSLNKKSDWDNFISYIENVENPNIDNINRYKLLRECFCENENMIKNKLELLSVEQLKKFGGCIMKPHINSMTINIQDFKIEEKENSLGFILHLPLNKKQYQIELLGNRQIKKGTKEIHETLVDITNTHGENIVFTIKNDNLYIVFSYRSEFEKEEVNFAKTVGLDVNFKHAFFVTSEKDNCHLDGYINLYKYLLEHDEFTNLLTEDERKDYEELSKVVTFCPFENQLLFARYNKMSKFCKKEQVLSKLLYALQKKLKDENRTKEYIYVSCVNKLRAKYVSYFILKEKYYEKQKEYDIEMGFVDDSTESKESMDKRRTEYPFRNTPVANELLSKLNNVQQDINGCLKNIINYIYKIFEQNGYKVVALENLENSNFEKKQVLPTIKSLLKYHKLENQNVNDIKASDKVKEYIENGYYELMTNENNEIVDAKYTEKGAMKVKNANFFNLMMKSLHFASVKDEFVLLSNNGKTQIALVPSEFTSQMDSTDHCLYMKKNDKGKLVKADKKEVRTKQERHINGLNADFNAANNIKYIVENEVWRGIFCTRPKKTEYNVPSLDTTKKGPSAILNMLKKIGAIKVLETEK


Experiments:
Settings in all cases: tags: pcDNA3.1 expression
[1] = molecular target: T1, variant nuclease SEQ ID NO: 53 (P14R, …); experiment: cell_activity; % indels; HEK293T; PAM 5'-TTTG-3'
[2] = molecular target: T1, variant nuclease SEQ ID NO: 53 (P14R, …); experiment: cell_activity; % indels; HEK293T; PAM 5'-ATTG-3'
[3] = molecular target: T2, variant nuclease T338G combination; experiment: cell_activity; PAM 5'-ATTG-3'
[4] = molecular target: T3, variant nuclease D55G/E736G combination; experiment: cell_activity; PAM 5'-ATTG-3'

Binder | indel editing activity [1] | indel frequency [2] | indel editing activity [3] | indel editing activity [4]
AAVS1 crRNA ; AAVS1 target (ssRNA ; dsDNA) RNA: CUUGUUGUAUAUGUCCUUUUAUAGGUAUUAAACAACUGAGAAUGGUGCGUCCUAGG DNA 1: TGAGAATGGTGCGTCCTAGG DNA 2: CCTAGGACGCACCATTCTCA | 6.11 fold of WT |  |  | 
EMX1 crRNA ; EMX1 target (ssRNA ; dsDNA) RNA: CUUGUUGUAUAUGUCCUUUUAUAGGUAUUAAACAACCCGCCGCUUCCUGAGCCAUC DNA 1: CCGCCGCTTCCTGAGCCATC DNA 2: GATGGCTCAGGAAGCGGCGG |  | 11.9 fold of WT | 7.58 fold of WT | 10.5 fold of WT
